Data published in the DeepSol protein solubility set.

Test: soluble on expression in E. coli; label from the status in PepcDB or PDB records
With “MAAISFLGDLIQTISDRGRDLIGLARSDLARTASAADLARFCEDLISRRGEASGVALARLILDRYAAFPLEDRLAFLELIATEFGADHDAVDAAIAAYRADPTRARLGLLHVAAEPRSQELIRRLNLARGGTLALVRMREDLFTLRKRLKDREAAPETIDATVSLDSDFEHLFASWFNRGFLVLRPIDWSTPADILEKIIRYEAVHEIADWDELRRRIQPTDRRCFAFFHPALLDEPLIFVEVALTNAIAPAIQPILADGREPVPARSATTAIFYSISNCQKGLAGVTFGNFLIKQVVEDLAREIPSLKTFVTLSPVPGFRTWLDRERGAGAPQGLTREDVEALRLLDTEDWRSDKTKCEAVRRAMLPAAAAYFLRAKNEKGRPLDPVARFHLGNGARLERMNFLGDTSKKGLKQSYGLMVNYLYDLSAIEKNHETYVNLGTVATSSAVSRELRSNLPPPRAVVLAEAGLEHHHHHH” the “soluble on expression in E. coli” value was “not soluble”.
With “MAAKLQKWRNLAGRLDLMNRSGAVSTRRFLHEGPDTVEELLERHLAKKEKPIIDHDEAEFLNRRRLTSTRREALSLYRDILRATRFFTWIDSRGNLWRDVLRENARKEFEAARFETDPEVITRLLIGGSDAVSSALDKLAEKQREMIEKQRRGDQR” the “soluble on expression in E. coli” value was “soluble”.
For “MAAKPILYSSWSSGCSSRVRTALALKKIDYEYQPVNLLNKQKEQEFHGNNPAEKVPILKINGLTLTESMAIIEYLDEIYPDPPLLPKEPELKARARAIAFHIASNIQPLQNKPIYLMLNEKEPGYGDFWCQHFISKGFKALEELLQMHSGDFCVGNQISIADICLPSIVYNAIEKYHVDMTPYPIITRISNKLAELPEFQVAHPNNQPDAPKN”, the “soluble on expression in E. coli” value was “not soluble”.
For “MAANRVAMEEDITESVTLMVDSVSSSPMTPKTVTVKEDETHHPYAFHVSGPRNVASPNWRDLINSSWKDPNYKRTVMACFIQAAYLLELDRQENRNEQNALAPKWWIPFKYKLSQTLIDERDGSIFGAVLEWDRAAAMADLVVIRPSGAPKAVLALRGTILKSLTMRRDIEDDLRFLAWESLKGSVRFNVALEALQSVATRYGSSNVCVVGHSLGAGFALQVGKSLAKEGLFVDAHLFNPPSISVAMSLRNISEKAGVAWKRLMSMLPPKHEPLIQNSNEGQVSPSNVSSGFRNWVPSFYGSNQKPTVDLRKWVPHLYVNDSDYICCHYTDQDGVAEKREMNNKENNSPVVNTNFQAAAKLFVMSKGKQKFHEAHGLEQWWSDNLELQSAIHSSRLISQQLKSLYSIK”, the “soluble on expression in E. coli” value was “soluble”.
In the case of “MAAPGPALCLFDVDGTLTAPRQKITKEMDDFLQKLRQKIKIGVVGGSDFEKVQEQLGNDVVEKYDYVFPENGLVAYKDGKLLCRQNIQSHLGEALIQDLINYCLSYIAKIKLPKKRGTFIEFRNGMLNVSPIGRSCSQEERIEFYELDKKENIRQKFVADLRKEFAGKGLTFSIGGQISFDVFPDGWDKRYCLRHVENDGYKTIYFFGDKTMPGGNDHEIFTDPRTMGYSVTAPEDTRRICELLFS”, the “soluble on expression in E. coli” value is reported as “soluble”.
In the case of “MAARKLIARINPTNSALFVCDLQEKFASNIKYFPEIITTSRRLIDAARILSIPTIVTEQYPKGLGHTVPTLKEGLAENTPIFDKTKFSMCIPPTEDTLKKVQNVILVGIEAHVCVLQTTYDLLERGLNVHVVVDAVSSRSHTDRHFAFKQMEQAGAILTTSEATILGLVGGSDHPKFKEVQKLILTSAPDTGLVPLSKL”, the “soluble on expression in E. coli” value is reported as “soluble”.
For “MAAVVALSLRRRLPATTLGGACLQASRGAQTAAATAPRIKKFAIYRWDPDKAGDKPHMQTYKVDLNKCGPMVLDALIKIKNEVDSTLTFRRSCREGICGSCAMNINGGNTLACTRRIDTNLNKVSKIYPLPHMYVIKDLVPDLSNFYAQYKSIEPYLKKKDESQEGKQQYLQSIEEREKLDGLYECILCACCSTSCPSYWWNGDKYLGPAVLMQAYRWMIDSRDDFTEERLAKLQDPFSLYRCHTIMNCTRTCPKGLNPGKAIAEIKKMMATYKEKKASV”, the “soluble on expression in E. coli” value was “not soluble”.
For “MAAYSYRPGPGAGPGPAAGAALPDQSFLWNVFQRVDKDRSGVISDTELQQALSNGTWTPFNPVTVRSIISMFDRENKAGVNFSEFTGVWKYITDWQNVFRTYDRDNSGMIDKNELKQALSGFGYRLSDQFHDILIRKFDRQGRGQIAFDDFIQGCIVLQRLTDIFRRYDTDQDGWIQVSYEQYLSMVFSIV”, the “soluble on expression in E. coli” value was “soluble”.
With “MACKRLVPGGEIERTRRVLDLFADSGSRVIRPQQPVDVLGSEGPAKVLGQVQNNVAVQYDHMVRGIGHDTGLESDQVCRLTERGICVRELLTLVFGDKALGAEHGDIRRGHTQDAGVL” the “soluble on expression in E. coli” value was “not soluble”.
